Screen value data for 9 variants are collected here from article PMC10883267 (2023).

The labels stand for the following.
B1: mouse eIF4E1B (63-244) [mouse] / eIF4E-binding motif of human eIF4EBP1 (50-83) [human] (parent complex)
chain 1: KLHPLQYRWVLWFFKNDRSRAWQDNLQLVTKFNTVEDFWAVYSHIKLASKLSSGCDYALFKEGILPMWEDNRNKQGGRWLLSIDKQLRHFELDRLWLETLLCLVGNCFEEYSREVCGAVVNIRTKRDKIALWTSEAEDKAGVMQIGQIYKERLGISTKTIIGYQAHADTAAKSNNLANKFVV
chain 2: TRIIYDRKFLMECRNSPVTKTPPRDLPTIPGVTS
B2: mouse eIF4E1B (63-244) [mouse] / eIF4E-binding motif of human eIF4ENIF1 (27-63) [human] (parent complex)
chain 1: B1 chain 1
chain 2: PHRYTKEELLDIKELPHSKQRPSCLSEKYDSDGVWDP
B3: mouse eIF4E1B (63-244) [mouse] / eIF4E-binding motif of human eIF4G (608-647) [human] (parent complex)
chain 1: B1 chain 1
chain 2: EKKRYDREFLLGFQFIFASMQKPEGLPHISDVVLDKANKT

One assay covers variants of B1. The assay is described as follows: pulldown with E. coli lysates, quantified; n = 3 independent experiments; parent: 0.9; read off a plot.
As for chain 1 KLHPLQYRWVLWFFKNDRSRAWQDNLQLVTKFNTVEDFWAVYSHIKLASNLMSGCDYALFKEGILPMWEDERNKQGGRWLLSIDKQLRRFELDRLWLETLLCLVGNCFEEYSREVCGAVVNIRTKRDKIALWTSEAEDKAGVMQIGQIYKERLGISTKTIIGYQAHADTAAKSNNLANKFVV [chain 1 K50N, chain 1 S52M, chain 1 N71E, chain 1 H89R], the screen value is ~0.7 rel. to Mm eIF4E.

In the case of chain 1 KLHPLQYRWVLWFFKNDRSRAWQDNLQLVTKFNTVEDFWAVYSHIELASKLSSGCDYALFKEGILPMWEDNRNKQGGRWLLSIDKQLRHFELDRLWLETLLCLVGNCFEEYSREVCGAVVNIRTKRDKIALWTSEAEDKAGVMQIGQIYKERLGISTKTIIGYQAHADTAAKSNNLANKFVV [chain 1 K46E], the screen value is ~0.85 rel. to Mm eIF4E.

chain 1 KLHPLQYRWVLWFFKNDRSRAWQDNLQLVTKFNTVEDFWAVYSHIKLASNLSSGCDYALFKEGILPMWEDNRNKQGGRWLLSIDKQLRHFELDRLWLETLLCLVGNCFEEYSREVCGAVVNIRTKRDKIALWTSEAEDKAGVMQIGQIYKERLGISTKTIIGYQAHADTAAKSNNLANKFVV [chain 1 K50N]: the screen value was ~0.68 rel. to Mm eIF4E.

Another assay covers variants of B2. The assay is described as follows: pulldown with E. coli lysates, quantified; n = 3 independent experiments; parent: 2.5; read off a plot.
Turning to chain 1 KLHPLQYRWVLWFFKNDRSRAWQDNLQLVTKFNTVEDFWAVYSHIKLASNLMSGCDYALFKEGILPMWEDERNKQGGRWLLSIDKQLRRFELDRLWLETLLCLVGNCFEEYSREVCGAVVNIRTKRDKIALWTSEAEDKAGVMQIGQIYKERLGISTKTIIGYQAHADTAAKSNNLANKFVV [chain 1 K50N, chain 1 S52M, chain 1 N71E, chain 1 H89R], the screen value is ~1.4 rel. to Mm eIF4E.

Turning to chain 1 KLHPLQYRWVLWFFKNDRSRAWQDNLQLVTKFNTVEDFWAVYSHIKLASNLSSGCDYALFKEGILPMWEDNRNKQGGRWLLSIDKQLRHFELDRLWLETLLCLVGNCFEEYSREVCGAVVNIRTKRDKIALWTSEAEDKAGVMQIGQIYKERLGISTKTIIGYQAHADTAAKSNNLANKFVV [chain 1 K50N], the screen value was ~1.6 rel. to Mm eIF4E.

For the variant chain 1 KLHPLQYRWVLWFFKNDRSRAWQDNLQLVTKFNTVEDFWAVYSHIELASKLSSGCDYALFKEGILPMWEDNRNKQGGRWLLSIDKQLRHFELDRLWLETLLCLVGNCFEEYSREVCGAVVNIRTKRDKIALWTSEAEDKAGVMQIGQIYKERLGISTKTIIGYQAHADTAAKSNNLANKFVV [chain 1 K46E], the screen value was ~1.6 rel. to Mm eIF4E.

Another assay covers variants of B3. In words: pulldown with E. coli lysates, quantified; n = 3 independent experiments; parent: 0.3; read off a plot.
In the case of chain 1 KLHPLQYRWVLWFFKNDRSRAWQDNLQLVTKFNTVEDFWAVYSHIELASKLSSGCDYALFKEGILPMWEDNRNKQGGRWLLSIDKQLRHFELDRLWLETLLCLVGNCFEEYSREVCGAVVNIRTKRDKIALWTSEAEDKAGVMQIGQIYKERLGISTKTIIGYQAHADTAAKSNNLANKFVV [chain 1 K46E], the screen value is ~0.13 rel. to Mm eIF4E.

Take chain 1 KLHPLQYRWVLWFFKNDRSRAWQDNLQLVTKFNTVEDFWAVYSHIKLASNLSSGCDYALFKEGILPMWEDNRNKQGGRWLLSIDKQLRHFELDRLWLETLLCLVGNCFEEYSREVCGAVVNIRTKRDKIALWTSEAEDKAGVMQIGQIYKERLGISTKTIIGYQAHADTAAKSNNLANKFVV [chain 1 K50N]: the screen value is ~0.22 rel. to Mm eIF4E.

On to chain 1 KLHPLQYRWVLWFFKNDRSRAWQDNLQLVTKFNTVEDFWAVYSHIKLASNLMSGCDYALFKEGILPMWEDERNKQGGRWLLSIDKQLRRFELDRLWLETLLCLVGNCFEEYSREVCGAVVNIRTKRDKIALWTSEAEDKAGVMQIGQIYKERLGISTKTIIGYQAHADTAAKSNNLANKFVV [chain 1 K50N, chain 1 S52M, chain 1 N71E, chain 1 H89R], for which the screen value is ~0.22 rel. to Mm eIF4E.
